Results reported in article PMC4258114.

System: SaiR-His6 (Bacillus anthracis str. Sterne 7702)
Assay: restriction enzyme

spxA2 SaiR site 1 wild-type (oMN14-666/oMN14-667)
K half: 6 nM
